FRET efficiency data for one substance are collected here from publication PMC11020826.

The experiment concerns the target PYE-GFP (Arabidopsis) (UniProt Q9SN74). The experiment in a line: FRET or BRET; FRET-APB (acceptor photobleaching) in nuclei of transiently transformed tobacco leaf epidermis cells; GFP donor, mCherry acceptor; ß-estradiol-induced; n = 15 nuclei; negative control donor only. (In general: In BRET a luciferase serves as donor, and the signal depends on an acceptor being close.)
Chain of UniProt Q9SN74 (Q9SN74 whole entry): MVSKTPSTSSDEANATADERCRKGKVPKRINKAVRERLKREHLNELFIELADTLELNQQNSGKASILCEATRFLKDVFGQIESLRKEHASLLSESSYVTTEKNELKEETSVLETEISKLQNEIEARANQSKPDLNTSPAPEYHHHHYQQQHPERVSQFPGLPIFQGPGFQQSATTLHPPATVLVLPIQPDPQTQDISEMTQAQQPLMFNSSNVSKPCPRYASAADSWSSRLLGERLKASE

OLV-mCherry (natural protein) came in with an FRET efficiency of 3.5%.
